From patent publication US20110124560A1 (University of Pennsylvania, published 2011)

B1: His-tagged full length FOXP3a (other, human, UniProt Q9BZS1 1-431, looked up)
chain: MPNPRPGKPSAPSLALGPSPGASPSWRAAPKASDLLGARGPGGTFQGRDLRGGAHASSSSLNPMPPSQLQLPTLPLVMVAPSGARLGPLPHLQALLQDRPHFMHQLSTVDAHARTPVLQVHPLESPAMISLTPPTTATGVFSLKARPGLPPGINVASLEWVSREPALLCTFPNPSAPRKDSTLSAVPQSSYPLLANGVCKWPGCEKVFEEPEDFLKHCQADHLLDEKGRAQCLLQREMVQSLEQQLVLEKEKLSAMQAHLAGKMALTKASSVASSDKGSCCIVAAGSQGPVVPAWSGPREAPDSLFAVRRHLWGSHGNSTFPEFLHNMDYFKFHNMRPPFTYATLIRWAILEAPEKQRTLNEIYHWFTRMFAFFRNHPATWKNAIRHNLSLHKCFVRVESEKGAVWTVDELEFRKKRSQRPSRCSNPTPGP
notes: Expressed in Sf9 insect cells, purified by Ni-NTA; also called Full length FOXP3a (the large isoform) with a 6x His tag; purified His-tagged FOXP3a; not shown: 6x His tag
B2: FOXP3 delK250 mutant (other, human, UniProt Q9BZS1 1-431, looked up, not shown: small tags and cut ends)
chain: MPNPRPGKPSAPSLALGPSPGASPSWRAAPKASDLLGARGPGGTFQGRDLRGGAHASSSSLNPMPPSQLQLPTLPLVMVAPSGARLGPLPHLQALLQDRPHFMHQLSTVDAHARTPVLQVHPLESPAMISLTPPTTATGVFSLKARPGLPPGINVASLEWVSREPALLCTFPNPSAPRKDSTLSAVPQSSYPLLANGVCKWPGCEKVFEEPEDFLKHCQADHLLDEKGRAQCLLQREMVQSLEQQLVLEEKLSAMQAHLAGKMALTKASSVASSDKGSCCIVAAGSQGPVVPAWSGPREAPDSLFAVRRHLWGSHGNSTFPEFLHNMDYFKFHNMRPPFTYATLIRWAILEAPEKQRTLNEIYHWFTRMFAFFRNHPATWKNAIRHNLSLHKCFVRVESEKGAVWTVDELEFRKKRSQRPSRCSNPTPGP
notes: Deletion, not a substitution: K250 is removed; also called myc-delK250 FOXP3a; FOXP3 K250 deletion mutant

Key:
[1] = molecular target: the molecule itself; assay: gel filtration of purified protein, fractions immunoblotted with anti-FOXP3 221D (self-association)
Description: FIG. 2A is an image of an immunoblot and a corresponding graph of the relative amounts of FOXP3a detected by the immunoblot. To generate the immunoblot, purified His-tagged FOXP3a was size fractionated by gel filtration, and the fractions were subject to immunoblotting with anti-FOXP3 antibody. ImageJ software (http://rsb.info.nih.gov/ij/) was used for relative quantification of the bands.
Full length FOXP3a (the large isoform) with a 6× His tag was expressed in Sf9 insect cells and purified by Ni-NTA column. The purified His-tagged full length FOXP3a was size fractionated, followed by SDS-PAGE and immunoblotting of the individual fractions with anti-FOXP3 mAb 221D. Purified full length FOXP3a eluted from the gel filtration column as a dominant mixture of monomers, dimers, tetramers, and a detectable amount of oligomeric species (FIG. 2A).

[2] = molecular target: the molecule itself; assay: co-immunoprecipitation from transfected HEK293T cells
Description: Full-length FOXP3 E251 and K250 deletion mutants were created by site-directed mutagenesis and subcloned into mammalian expression vectors containing either myc or HA epitope tags at the N-terminus. HEK293T cells were transfected with the myc-tagged wild type FOXP3, myc-tagged FOXP3-delE251, HA-tagged wild type FOXP3, or HA-tagged FOXP3-delE251 vectors as indicated (FIG. 2C). The HA-tagged wild type FOXP3 species was able to homo-associate with the myc-tagged wild type FOXP3, but not with the myc-tagged delE251 mutant, and vice versa (FIG. 2C). […] Thus the leucine zipper domain is essential for FOXP3 homo-association.

| Protein | binding result [1] | binding result [2] |
| --- | --- | --- |
| B1 | binds | – |
| B2 | – | no binding |
